Experimental data published in patent publication US20240287172A1 (SCIRHOM, published 2024).

Biological target: T1, hiR2-FL-F588H-T7 (human, UniProt Q6PJF5 1-856)
T1 sequence: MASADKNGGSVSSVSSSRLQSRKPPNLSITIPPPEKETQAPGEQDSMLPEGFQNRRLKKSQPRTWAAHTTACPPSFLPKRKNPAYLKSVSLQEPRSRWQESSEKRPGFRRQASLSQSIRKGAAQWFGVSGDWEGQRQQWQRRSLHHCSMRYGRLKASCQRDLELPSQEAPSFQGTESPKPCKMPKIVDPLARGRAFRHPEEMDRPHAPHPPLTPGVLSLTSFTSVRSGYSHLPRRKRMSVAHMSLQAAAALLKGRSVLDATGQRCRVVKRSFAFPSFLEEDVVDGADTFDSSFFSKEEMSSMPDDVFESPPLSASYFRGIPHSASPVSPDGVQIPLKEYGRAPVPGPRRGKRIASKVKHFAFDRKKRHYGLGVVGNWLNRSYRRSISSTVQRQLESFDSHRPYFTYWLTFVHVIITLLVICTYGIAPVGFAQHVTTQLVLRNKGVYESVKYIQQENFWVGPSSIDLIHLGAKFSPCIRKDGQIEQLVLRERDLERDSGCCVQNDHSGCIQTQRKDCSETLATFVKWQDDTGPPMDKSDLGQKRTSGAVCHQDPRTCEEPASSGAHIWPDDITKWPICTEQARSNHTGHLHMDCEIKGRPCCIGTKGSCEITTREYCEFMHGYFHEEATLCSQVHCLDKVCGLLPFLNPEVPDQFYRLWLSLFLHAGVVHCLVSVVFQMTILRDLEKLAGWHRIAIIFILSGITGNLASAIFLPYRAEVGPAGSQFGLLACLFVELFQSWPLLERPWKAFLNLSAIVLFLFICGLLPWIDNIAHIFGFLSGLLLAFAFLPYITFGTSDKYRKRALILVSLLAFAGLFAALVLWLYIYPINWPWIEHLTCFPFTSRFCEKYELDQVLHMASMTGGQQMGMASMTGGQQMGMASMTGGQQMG
Assay: FACS, MEF-DKO cells, 3 µg/ml
Procedure, shortened: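 Binding read by flow cytometry after a PE goat anti-mouse IgG F(ab′)2 secondary (1:100, on ice, 1 h, dark). Before that, immortalized MEF-DKO lines carrying single-mutant hiR2-FL-T7 constructs were incubated 1 h on ice with 3 μg/ml antibody or FACS buffer alone.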

B1: antibody 3 (antibody, V domains shown)
VH: QVTLKESGPGILQPSQTLSLTCSFSGFSLTTFAMGIGWVRQPSGKGLEWLAHIWWDGEKYNNPVLKSRLTISKDTSKNQVFLRIANVDTPDTATYYCARISSIYYIIDNWGQGTSVTVSS
VL: DIVLTQSPATLSVTPGHSVSLSCRASQSISNNLHWYQKKSHESPRLLIKYVSQSISGIPSRFSGSGSGTDFTLSINSVETEDFGMYFCQQSYNWPLTFGAGTKLELK
notes: mouse IgG, kappa light chain; also called clone #3; purified antibody 3
Q: With B1 as the binder, how does the “loss of binding vs wild type” value read?
A: The value was ≥ 30%.
